From article PMC3274520

Key:
[1] = molecular target: full-length MNV-1 NS1-2, bacterial two-hybrid fusions (pBT-NS1-2full and pTRG-NS1-2full) (Murine norovirus (MNV-1)); assay: two-hybrid; BacterioMatch II bacterial two-hybrid; NS1-2 fused to λcI (pBT) and to the RNA polymerase α-subunit (pTRG); selective medium with 3 mM 3-AT
[2] = molecular target: truncated MNV-1 NS1-2 fragment (minus the transmembrane domain), recombinant from E. coli (Murine norovirus (MNV-1)); assay: SEC + other: sucrose gradient sedimentation; Stokes radius from the calibrated Superose12 column and sedimentation coefficient from 5-20% sucrose gradients (16 h, 130,000×g, 4°C) joined in the simplified Svedberg equation; monomer and dimer fractions of the size exclusion column
[3] = molecular target: truncated MNV-1 NS1-2, bacterial two-hybrid fusions (pBT-NS1-2trunc and pTRG-NS1-2trunc) (Murine norovirus (MNV-1)); assay: two-hybrid; BacterioMatch II bacterial two-hybrid; NS1-2 fused to λcI (pBT) and to the RNA polymerase α-subunit (pTRG); selective medium with 3 mM 3-AT

In the case of “full-length MNV-1 NS1-2, bacterial two-hybrid fusions (pBT-NS1-2full and pTRG-NS1-2full) (natural protein)”, the percent positive (transcriptional activation) [1] is reported as 26%.

Substance “truncated MNV-1 NS1-2 fragment (minus the transmembrane domain), recombinant from E. coli (domain or fragment)” has a stoichiometry N [2] of 2.

Work on “truncated MNV-1 NS1-2, bacterial two-hybrid fusions (pBT-NS1-2trunc and pTRG-NS1-2trunc) (domain or fragment)” yielded a percent positive (transcriptional activation) [3] of 38%.
